Measured values reported in US7276481B2, “Method and composition for treatment of skeletal dysplasias” (ProChon Biotech Ltd., priority 2001, dated 2007).
“Also recorded” adds a separate entry of the source. Read-outs that look alike come from different tables or passages of the source.

Columns and labels:
[1] = system: femora derived from achondroplasia model mice (Ach369, Ach374) and wild type littermates; experiment: Ex vivo femoral bone culture; settings: for bone elongation / longitudinal growth in bone culture (in words): femora of Ach and wild type mice, versus vehicle or untreated; for Growth rate (days 0-3) / Growth rate (days 3-15): CNP treated femora, 40 units=1 mm
Protocol: Femora derived from achondroplasia model mice (Ach369 knock-in mice carry the Gly to Cys mutation at position 369, analogous to position 375 in humans or Ach374 knock-in mice that carry the Gly to Arg mutation at position 374, analogous to position 380 in humans) were dissected from P0 wild type, heterozygote and homozygote littermates and cultured in the presence of natriuretic peptides for 15 days.
Protocol for Bone Culture: Femoral bone cultures were performed by excising the hind limbs of mice. The limbs were carefully cleaned from the surrounding tissue (skin and muscles) and the femora exposed. The femora were removed and further cleared from tissue remains and ligaments. The femora were measured for their initial length, using a binocular with an eyepiece micrometer ruler. The bones were grown in 1 ml of medium (α-MEM supplemented with penicillin (100 units/ml), streptomycin (0.1 mg/ml), nystatin (12.5 units/ml), BSA (0.2%), β-glycerophosphate (1 mM) and freshly prepared ascorbic acid (50 μg/ml)) with varying concentrations of NPs or CNP variants in a 24 well tissue culture dish. The bones were cultured for 15 days while measurements of bone length and medium replacement were performed every three days. At the end of the experiment, the growth rate of the bones was determined. The growth rate of bones is calculated from the slope of a linear regression fit on the length measurements obtained from day 3 to 15. Units given can be converted to length, 40 units=1 mm.

[2] = molecular target: T1, natriuretic peptide receptor on C3H10T1/2 cells (Mus musculus, UniProt Q6VVW5); experiment: Biotrak enzyme immunoassay of cGMP elicited on C3H10T1/2 cells; format: cell-based
T1 construct: endogenous in cells; host or cells: C3H10T1/2 cells
T1 sequence (Q6VVW5 23-1047 limits assumed): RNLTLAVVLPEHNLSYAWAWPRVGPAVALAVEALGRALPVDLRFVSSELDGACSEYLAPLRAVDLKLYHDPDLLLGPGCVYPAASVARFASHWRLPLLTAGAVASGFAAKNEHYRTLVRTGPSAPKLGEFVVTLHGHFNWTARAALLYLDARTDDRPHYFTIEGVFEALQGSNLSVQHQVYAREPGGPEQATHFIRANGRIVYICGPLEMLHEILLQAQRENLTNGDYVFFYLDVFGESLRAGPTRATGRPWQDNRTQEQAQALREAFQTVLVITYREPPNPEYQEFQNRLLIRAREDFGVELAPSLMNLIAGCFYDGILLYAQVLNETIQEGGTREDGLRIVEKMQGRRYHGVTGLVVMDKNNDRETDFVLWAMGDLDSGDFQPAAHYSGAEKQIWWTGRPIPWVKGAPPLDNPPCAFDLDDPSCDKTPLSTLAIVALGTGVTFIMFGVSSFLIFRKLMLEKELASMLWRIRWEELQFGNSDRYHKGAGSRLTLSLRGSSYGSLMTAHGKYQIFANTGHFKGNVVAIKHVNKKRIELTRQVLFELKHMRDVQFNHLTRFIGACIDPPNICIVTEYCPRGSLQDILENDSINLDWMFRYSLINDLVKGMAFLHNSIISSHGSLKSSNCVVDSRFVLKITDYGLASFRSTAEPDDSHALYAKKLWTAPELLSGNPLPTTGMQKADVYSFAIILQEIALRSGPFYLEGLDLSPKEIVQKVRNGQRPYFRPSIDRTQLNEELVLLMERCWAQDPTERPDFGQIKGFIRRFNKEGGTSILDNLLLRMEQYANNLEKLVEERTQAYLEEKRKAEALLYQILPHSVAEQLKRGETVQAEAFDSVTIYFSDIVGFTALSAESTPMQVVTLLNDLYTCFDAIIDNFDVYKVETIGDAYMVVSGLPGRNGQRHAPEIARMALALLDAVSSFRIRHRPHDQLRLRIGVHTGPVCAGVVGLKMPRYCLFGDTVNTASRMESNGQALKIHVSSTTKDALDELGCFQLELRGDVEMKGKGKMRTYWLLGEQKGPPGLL
Protocol: All peptide variants were analyzed for activity using the Biotrak enzyme immunoassay (EIA, Amersham) that measures the amount of secondary messenger, cyclic GMP (cGMP), elicited after activation of the natriuretic peptide receptor by the peptide on C3H10T1/2 cells. Amino acid substitutions are marked in bold and underlined. The assay was performed for CNP and variants at a concentration of 10^−6 M. The values are given as the percent of relative binding compared to CNP, where CNP 1-22 and CNP 5-22 yield 100% binding.

[3] = system: fetal bone organ culture from wild type (normal) animals; settings: wild type fetal bones; cited from earlier work
[4] = 125Iodine-labeled GH in blood after IP administration; format: in vivo, mice; settings: 125Iodine-labeled GH IP, one hour after a pulse of unlabelled GH
Source text: To determine whether GH can enter the growth plate from the circulation, GH was labeled with ^125Iodine and administered to mice IP, one hour after a pulse of unlabelled GH. Blood samples were collected at several time points and analyzed on a protein gel.

[5] = Table 2, cGMP assay, compared to CNP
[6] = Table 3, cGMP values at 10^-6 M, compared to CNP (CNP 1-22 and CNP 5-22 = 100%)

For “C F G L K L D R I G S A S G L G C (CFGLKLDRIGSASGLGC; peptide variant) [SEQ ID NO:10]”, the “bone elongation / longitudinal growth in bone culture (in words)” value [1] was “induced elongation of Ach369 femora even at a concentration similar to that of CNP”, the “activity in cGMP assay (in words)” value [2] was “increases activity” and the “cGMP response as percent of CNP” value [2, 5] was 138.1%. The “activity in cGMP assay (in words)” value ([2]; listed as SEQ ID NO: 10) was “retains high activity”.
With “C F G L K L E R I G S M S G L G C (CFGLKLERIGSMSGLGC; peptide variant) [SEQ ID NO:35]” the “cGMP response as percent of CNP” value [2, 6] was 9.450%.
In the case of “C F G L K L I R I G S M S G L G C (CFGLKLIRIGSMSGLGC; peptide variant) [SEQ ID NO:38]”, the “cGMP response as percent of CNP” value [2, 6] is reported as 7.228%.
In the case of “C F G L K L M R I G S M S G L G C (CFGLKLMRIGSMSGLGC; peptide variant) [SEQ ID NO:39]”, the “cGMP response as percent of CNP” value [2, 6] is reported as 7.784%.
With “C F G L K L N R I G S M S G L G C (CFGLKLNRIGSMSGLGC; peptide variant) [SEQ ID NO:37]” the “cGMP response as percent of CNP” value [2, 6] was 17.235%.
In the case of “C F G L K L Q R I G S M S G L G C (CFGLKLQRIGSMSGLGC; peptide variant) [SEQ ID NO:36]”, the “cGMP response as percent of CNP” value [2, 6] is reported as −17.095%.
In the case of “C F G L K V D R I G S M S G L G C (CFGLKVDRIGSMSGLGC; peptide variant) [SEQ ID NO:47]”, the “cGMP response as percent of CNP” value [2, 6] is reported as 66.714%.
In the case of “C F G L L L D R I G S M S G L G C (CFGLLLDRIGSMSGLGC; peptide variant) [SEQ ID NO:43]”, the “cGMP response as percent of CNP” value [2, 6] is reported as 29.744%.
In the case of “C F G L M L D R I G S M S G L G C (CFGLMLDRIGSMSGLGC; peptide variant) [SEQ ID NO:44]”, the “cGMP response as percent of CNP” value [2, 6] is reported as 5.421%.
For “C F G V K L D R I G S M S G L G C (CFGVKLDRIGSMSGLGC; peptide variant) [SEQ ID NO:42]”, the “cGMP response as percent of CNP” value [2, 6] was 64.212%.
In the case of “C H F G L K L D R I - - - - - - C (CHFGLKLDRIC; peptide variant) [SEQ ID NO:23]”, the “cGMP response as percent of CNP” value [2, 5] is reported as 3.8%.
With “C H F G L K L D R I G A Q S - - C (CHFGLKLDRIGAQSC; peptide variant) [SEQ ID NO:13]” the “cGMP response as percent of CNP” value [2, 5] was 26.5%.
With “C H F G L K L D R I G S - - - - C (CHFGLKLDRIGSC; peptide variant) [SEQ ID NO:20]” the “cGMP response as percent of CNP” value [2, 5] was 11.9%.
With “C H F G L K L D R I G S M A - - C (CHFGLKLDRIGSMAC; peptide variant) [SEQ ID NO:12]” the “cGMP response as percent of CNP” value [2, 5] was 21.7%.
In the case of “C H F G L K L D R I G S M S - - C (CHFGLKLDRIGSMSC; peptide variant) [SEQ ID NO:11]”, the “cGMP response as percent of CNP” value [2, 5] is reported as 25.9%.
In the case of “C H G L K L D R I G S A S G L G C (CHGLKLDRIGSASGLGC; peptide variant) [SEQ ID NO:70]”, the “cGMP response as percent of CNP” value [2, 6] is reported as 3.058%.
In the case of “C H G L K L D R I G S M S G L G C (CHGLKLDRIGSMSGLGC; peptide variant) [SEQ ID NO:33]”, the “cGMP response as percent of CNP” value [2, 6] is reported as 5.699%.
With “C I G L K L D R I G S M S G L G C (CIGLKLDRIGSMSGLGC; peptide variant) [SEQ ID NO:28]” the “cGMP response as percent of CNP” value [2, 6] was 13.899%.
With “C L G L K L D R I G S M S G L G C (CLGLKLDRIGSMSGLGC; peptide variant) [SEQ ID NO:29]” the “cGMP response as percent of CNP” value [2, 6] was 6.255%.
With “C M G L K L D R I G S M S G L G C (CMGLKLDRIGSMSGLGC; peptide variant) [SEQ ID NO:30]” the “cGMP response as percent of CNP” value [2, 6] was −1.341%.
In the case of “C T G L K L D R I G S A S G L G C (CTGLKLDRIGSASGLGC; peptide variant) [SEQ ID NO:71]”, the “cGMP response as percent of CNP” value [2, 6] is reported as −9.108%.
In the case of “C T G L K L D R I G S M S G L G C (CTGLKLDRIGSMSGLGC; peptide variant) [SEQ ID NO:34]”, the “cGMP response as percent of CNP” value [2, 6] is reported as −6.903%.
In the case of “C V G L K L D R I G S M S G L G C (CVGLKLDRIGSMSGLGC; peptide variant) [SEQ ID NO:32]”, the “cGMP response as percent of CNP” value [2, 6] is reported as 5.740%.
With “C W G L K L D R I G S M S G L G C (CWGLKLDRIGSMSGLGC; peptide variant) [SEQ ID NO:31]” the “cGMP response as percent of CNP” value [2, 6] was −10.834%.
In the case of C-type natriuretic peptide [CNP], the “induction of bone elongation (rank order)” value [3] is given as “more than BNP and much more than ANP”, the Growth rate (days 0-3) ([1]; +/+ wild type (wt)) is given as 0.25 mm/day and the Growth rate (days 3-15) ([1]; +/+ wild type (wt)) is given as 0.143 mm/day. It also gave a Growth rate (days 0-3) ([1]; Ach/+ heterozygote) of 0.228 mm/day, a Growth rate (days 3-15) ([1]; Ach/+ heterozygote) of 0.085 mm/day and a Growth rate (days 0-3) ([1]; Ach/Ach homozygote) of 0.177 mm/day. For the same substance, the Growth rate (days 3-15) ([1]; Ach/Ach homozygote) was 0.07 mm/day, the “bone elongation / longitudinal growth in bone culture (in words)” value [1] was “increased the total longitudinal growth of femora; also recorded: increased in size at a rate higher than that of the untreated limbs” and the “cGMP response as percent of CNP” value [2, 6] was 100%.
With “GH: growth hormone labeled with 125Iodine and administered to mice IP” the “labeling of blood samples on a protein gel over time” value [4] was “increases in the first 2-3 hours, can still be observed at 6 hours and almost disappears at 24 hrs”.
